# Data from US9663815B2, “Cytosolically-active peroxidases as reporters for microscopy” (Massachusetts Institute of Technology, priority 2011, dated 2017).
# Entries after “also recorded” stand apart in the source; their conditions may differ.
# Columns and labels:
# [1] = Guaiacol activity assay (Michaelis-Menten kinetics); type: biochemical; conditions: guaiacol as substrate, purified enzyme
# Protocol: Data points represent the mean±standard deviation of 2-3 independent measurements. Initial rates are shown as a function of guaiacol concentration. H2O2 concentration was 90 μM, and enzyme concentration was 20 nM in all trials. Oxidation to tetraguaiacol was monitored by absorbance at 470 nm (ε470=22×10^3 M^−1 cm^−1)^2.
# High activity toward guaiacol generally correlated well with robust polymerization of DAB in vitro. Guaiacol assays were performed on a Nanodrop 2000c UV-vis spectrophotometer (Thermo Scientific) using its cuvette reader. HRP (Sigma) was prepared as a 10 μM stock in PBS, flash frozen and stored at −80° C., and thawed immediately before use. Guaiacol peroxidase activity was measured according to the protocol of Lad et. al.^35 Oxidation to tetraguaiacol was monitored by absorbance at 470 nm (ε470=22×10^3 M^−1 cm^−1). Kcat and KM were calculated by nonlinear regression fitting to the Michaelis-Menten equation using OriginPro (OriginLab Corporation). All values are reported as the mean±standard deviation for 2-3 independent Michaelis-Menten fittings, with each fitting using at least 5 values of substrate concentration ranging between 0.25 and 30 mM.
# In order to improve the performance of mAPX in mammalian cells, monomeric APX was engineered with improved activity toward DAB in the hope that faster kinetics could compensate for diminished heme binding. The substrate binding site of APX was compared to that of HRP, which has faster kinetics and broader aromatic substrate tolerance (Henriksen, et. al., Journal of Biological Chemistry 274, 35005-35011 (1999)). In order to make APX more HRP-like, seven mutants of APX were designed that incorporated mostly aromatic residues into the active site (FIG. 5a). A colorimetric assay was employed using guaiacol, a prototypical aromatic peroxidase substrate, to determine Michaelis-Menten parameters (Kumar, et. al., Journal of Cell Science 108, 3725-3734 (1995); Henriksen, et. al., Journal of Biological Chemistry 274, 35005-35011 (1999)) (FIG. 5b and FIG. 10). […]
# [2] = Gel filtration chromatography, oligomerization state; type: physicochemical
# Protocol: APX, fluorescent protein, or miniSOG preparations were diluted to the desired concentrations using chilled (4° C.) PBS and then allowed to incubate at room temperature for 30 min to overnight. Samples (100 μL) were run on a Waters HPLC system over a Superdex 75 10/300 column (GE Healthcare) that had been pre-equilibrated in PBS, pH 7.4. Samples were run isocratically in PBS at a flow rate of 0.5 mL/min. Elution of APX was monitored at 280 nm and 405 nm (heme absorbance). Empower software (Waters) was used for analysis of elution profiles. Apparent MWs were determined against low molecular weight standards (GE). […] The apparent MW of the monomer for wt APX was assumed to be equal to the apparent MW of mAPX at 0.25 μM.
# To investigate whether this localization is an artifact of APEX dimerization at high concentrations, the experiment was repeated using a tandem dimer of APX^W41F (two APX^W41F proteins linked with a short amino acid chain, denoted tdAPX) as well as miniSOG in place of APEX. Additionally, gel filtration chromatography (GFC) was used to assess the relative abundance of oligomers that formed at increasing tdAPX concentrations in vitro (5 μM, 20 μM, and 47 μM). Three different linker lengths (18, 23, and 28 amino acids) were tested. His6-tagged proteins were expressed and purified from E. coli. All three variants gave a major peak with an apparent molecular weight (MW) of ˜56 kDa, as expected for tdAPX. The apparent MW of the major peak remained constant as a function of concentration for all three constructs. […] Therefore, the 28 amino acid linker variant was selected as the optimized tandem dimer to be used in EM experiments.
# [3] = tested on: HEK293T cells; experiment: Amplex UltraRed labeling (resorufin fluorescence) of cells expressing peroxidase; type: cell-based
# Protocol: The expression and activity of wild-type (wt) APX was tested using immunostaining and Amplex UltraRed, a fluorogenic peroxidase substrate, in three cellular compartments: cytosol, mitochondrial matrix, and endoplasmic reticulum (ER). APX was differentially expressed in each compartment using at least the constructs described in Table 3. For comparison, HRP was tested in the same locations. Activity was monitored through visualization of resorufin, the fluorescent product of Amplex UltraRed oxidation by HRP or APX (scheme in FIG. 7). […] When live cells were imaged immediately after Amplex UltraRed labeling, resorufin fluorescence was seen throughout the entire cell. After fixation, however, the majority of the resorufin diffused out of the cells, and resorufin fluorescence remained only in the compartment in which APX was expressed. (Note that Amplex UltraRed, a proprietary derivative of Amplex Red, was used rather than Amplex Red in this example).
# Further, Amplex UltraRed labeling and immunostaining of wtAPX, APX^W41F, mAPX, and APEX was performed on transfected HEK293T cells. Amplex UltraRed labeling was performed for 6 minutes. All APX variants were expressed with a C-terminal nuclear export signal (NES, see Table 3). […]
Molecule,activity in vitro (guaiacol) [1],oligomerization state ([2]; PBS pH 7.4),"peroxidase activity toward Amplex UltraRed (resorufin) ([3]; expressed in cytosol, mitochondrial matrix and endoplasmic reticulum (ER))","oligomerization state ([2]; PBS pH 7.4, listed as APX K14D/E112K)","activity toward Amplex UltraRed ([3]; cytosol (NES), HEK293T, labeling 6 minutes)"
"wt APX: pea cytosolic ascorbate peroxidase (Pisum sativum), wild type, about 28 kD, dimeric (protein, listed as Pisum sativum) MGKSYPTVSPDYQKAIEKAKRKLRGFIAEKKCAPLILRLAWHSAGTFDSKTKTGGPFGTIKHQAELAHGANNGLDIAVRLLEPIKEQFPIVSYADFYQLAGVVAVEITGGPEVPFHPGREDKPEPPPEGRLPDATKGSDHLRDVFGKAMGLSDQDIVALSGGHTIGAAHKERSGFEGPWTSNPLIFDNSYFTELLTGEKDGLLQLPSDKALLTDSVFRPLVEKYAADEDVFFADYAEAHLKLSELGFAEA",equally active,predominantly dimeric at 0.25 μM; also recorded: runs as a dimer,active in all contexts,–,–
"mAPX: double mutant K14D/E112K of pea APX (SEQ ID NO:1), monomeric (protein, listed as Pisum sativum) MGKSYPTVSPDYQDAIEKAKRKLRGFIAEKKCAPLILRLAWHSAGTFDSKTKTGGPFGTIKHQAELAHGANNGLDIAVRLLEPIKEQFPIVSYADFYQLAGVVAVEITGGPKVPFHPGREDKPEPPPEGRLPDATKGSDHLRDVFGKAMGLSDQDIVALSGGHTIGAAHKERSGFEGPWTSNPLIFDNSYFTELLTGEKDGLLQLPSDKALLTDSVFRPLVEKYAADEDVFFADYAEAHLKLSELGFAEA",equally active,comparable to EYFP and much more monomeric than both wt APX and mEos2,–,most monomericity,less active than wt APX
